Source: patent US20100316642A1, “COMPLEXES OF GRP94 WITH HUMAN IMMUNOGLOBULIN G” (priority 2007, published 2010)

Columns and labels:
HUVECs [1] = test: Microscopic evaluation of morphogenic (angiogenic) transformation of HUVECs; type: cell-based, human
[2] = test system: human umbilical vein endothelial cells (HUVECs); test: Cell growth stimulation of HUVECs (cell count in hemocytometer); type: cell-based; settings: U0126 10 μM alone, no Grp94, control without inhibitor (DMSO 0.1%) 98.01±5.4×10^3
[3] = test system: HSP90 and HSP70 expression in HUVECs; test: Expression of HSP90, HSP70 and IgG in HUVEC lysates and conditioned media (SDS-PAGE, Western blotting); type: cell-based, human
Procedure: 2. Effects on the expression of HSP70 and HSP90 in HUVECs: hereafter are described in detail the method and results shown in FIG. 3(A) referred to experiments performed after 20-h incubation of cells in the presence of Grp94 (10 ng/ml), both alone and with IgG, with and without the inhibitor U0126 (10 μM, final concentration). Cells were detached from wells and treated with lysis buffer (50 mM Tris-HCl, pH 8.9, 5 mM EDTA, 380 mM glycine, 2% SDS, 7 mM β-mercaptoethanol). Whole cell lysates were analyzed in SDS-PAGE (10% polyacrylamide gel) followed by Western blotting with anti-HSP90, anti-HSP70 and anti-human IgG Abs. The same quantity of proteins (determined by means of densitometric analysis made on common bands in any lysates) was loaded in each well in SDS-PAGE. Arrows on left mark bands in the lanes that are also shared by nearby lanes on right. […] It is worth noting that band positive for IgG appear at the same masses at which also focuses HSP70. In the presence of the inhibitor, the HSP90 expression is blocked, whereas that of both HSP70 and IgG is still evident in cells after treatment, especially in bands at higher molecular masses. Western blotting for each type of protein is representative of at least three other experiments made on the same samples on different occasions.
The analysis made on cell lysates was also conducted on conditioned media (collected from the same cell cultures on which lysates were obtained, as reported above). Media were collected from duplicate wells, centrifuged for removing cell debris, extensively dialyzed, lyophilized and submitted to electrophoresis analysis followed by Western blotting with anti-HSP90, anti-HSP70 and anti-human IgG Abs (as above, for cell lysates). […] In particular, it was observed that the secreted species of HSP90, HSP70 and IgG were only those induced by treatments with Grp94, especially in complexes with IgG.

human IgG = test: Dot-blot analysis of Grp94 binding to human IgG; settings: human IgG 4 μg/ml, 8 h room temperature
Procedure: In dot-blot experiments, strips of PVDF membrane were rinsed first in methanol (1 min) and then in de-ionized water (1 min) and let partially dry (3 min). Dots were made with 10 μl of Grp94 (2 μg). Grp94 solution (in bi-distilled water) was used as such (without any treatment) or after boiling for 2 min. Dots with each of the Grp94 solutions (both untreated and boiled) were made in duplicate on membrane strips that were incubated in both absence (control, in TBS only) and presence of human IgG (4 μg/ml) for 8 h at room temperature. Membrane strips were then incubated overnight with a blocking solution of BSA (1%) and Tween (0.2%), followed by washings with TBS (for 1 h) and a further incubation with primary sheep anti-human IgG Abs (2.5 μg/ml). After repeated washings with TBS (for 1 h), membrane strips were then immersed in the solution of secondary Abs (donkey anti-sheep IgG Abs) for 1 h and probed with the detection solution. Control strips with dots of Grp94 incubated with TBS alone were probed with both primary and secondary Abs, and with secondary Abs alone.

[4] = test system: human peripheral blood mononuclear cells (PBMCs); test: Growth stimulation of PBMCs (cell count after 2-week culture); type: cell-based; settings: 2-week incubation, no FBS, control 10% FBS
Procedure: 4. Effects of stimulation of PBMC: PBMC were obtained from blood using the method of the Ficoll-Paque gradient. A sample of about 25 ml of buffy-coat (concentrated sample of red blood cells, white blood cells and platelets) was obtained after centrifugation of 250 ml of blood. The buffy-coat, containing about 300-600 million of PBMCs (1 million/ml of blood sample), was put in a 50-ml Falcon test-tube with the addition of a volume of RPMI (Roswell Park Memorial Institute) medium equal to half of the buffy-coat volume. The first step of PBMC separation included the preparation of the Ficoll solution in aliquots kept in the dark at +4° C. Five ml of buffy-coat were dropped on 4 ml of Ficoll solution put in Falcon test-tube (14-ml capacity). After centrifugation at 600×g for 30 min in swinging buket rotor, the white disk of PBMCs stratified between the upper […] (red blood cells instead precipitate to the bottom), and was thus recovered with a Pasteur pipette. The fractions of PBMCs were mixed together in a Falcon test-tube (50-ml capacity) and fresh RPMI medium added up to the volume of 50 ml. After centrifugation at 600×g for 15 min, the supernatant was discarded and the pellet washed twice by adding the medium up to the volume of 50 ml, each washing being followed by centrifugation at 300×g for 10 min. After the last centrifugation, the pellet was re-suspended with RPMI medium up to 50 ml of volume.
The count of PBMCs was made on a diluted solution of PBMCs, mixing 50 μl of the starting solution in 250 μl (final volume) of Turk dye solution (in acetic acid). The cell count was made in a common cell-counting chamber.
In experiments aimed at measuring IgG concentrations in the medium, PBMCs are seeded at the concentration of 2×10^6 cells/ml (1 ml/well) in a 24- or 48-well flat-bottomed plate (wells of 2 and 1 ml, respectively) incubated at 37° C., in a humidified 95% air, 5% CO2 atmosphere for 2 weeks. […]

PBMC = test: IgG production from PBMC (anti-human Ig-I125 radioimmunoassay of supernatants); type: cell-based; settings: Grp94 10 ng/ml (maximum of stimulation), 2-week incubation at 37° C.
Procedure: In experiments aimed at measuring IgG concentrations in the medium, PBMCs are seeded at the concentration of 2×10^6 cells/ml (1 ml/well) in a 24- or 48-well flat-bottomed plate (wells of 2 and 1 ml, respectively) incubated at 37° C., in a humidified 95% air, 5% CO2 atmosphere for 2 weeks. Controls included triplicate wells containing medium only (or the diluent in which substances were dissolved, where appropriate), puromicine (100 μg/ml, final concentration, useful for detecting background Abs, i.e., Abs already present in circulation non specifically bound to blood cells), and a standard mitogen (pockweed mitogen, PWM) diluted 1:50 (v:v). Treatment included the addition of Grp94 (at final concentrations of 1, 10 and 100 ng/ml), both alone and in complexes with IgG, and IgG alone (at the final concentration necessary to give a 1:1 molar ratio with Grp94), after each solution was incubated at 37° C. for 1 h.
5. IgG production from PBMC: on a 96-well (200 μl each) flat-bottomed Optiplate (Packard) were laid down 50 μl of anti-human IgG Abs (5 μg/ml in NaHCO3/Na2CO3 buffer, ph 9.6) that were allowed to dry out overnight. Afterwards, 200 μl of PBS with 3% BSA and 0.02% NaN3 were added to saturate aspecific binding sites in Abs. […] The plate was then dried after additional washings and radioactivity measured after the addition of 30 μl of Microscint 20 in each well. […]

HUVECs [5] = test: Confocal microscopy of HSP90/HSP70 fluorescence and cytoskeleton changes in HUVECs; type: cell-based, human; settings: Grp94 10 ng/ml, serum-free medium
Procedure: Cells were cultured in serum-free medium both without any treatment (control, panels a) and with the addition of both Grp94 alone (10 ng/ml) (panels b) and Grp94 in complexes with IgG (panels c), as specified above. In FIG. 4(A) is shown the fluorescence (evidenced with confocal microscopy) due to anti-HSP90 Abs reacting with HSP90 in both control and treated HUVECs (panels a, b and c on left). Intensity of the fluorescence is increased in cells treated with Grp94, especially when present in complexes with IgG. […] Of interest is the co-location of HSP90 with actin, mostly evident in podosomes, underlined by the pale blue fluorescence due to merging of the green and blue fluorescence of HSP90 and actin, respectively (panels on right). In FIG. 4(B) is shown the fluorescence due to HSP70 following the addition to cell cultures of anti-HSP70 Abs, similarly to what reported for anti-HSP90 Abs. […] Arrow heads in both (A) and (B) mark some of the most significant structural changes in the cell cytoskeleton (inserts in panels on right).

| binding to IgG (dot-blot) (human IgG; Grp94 after boiling for 2 min) | binding to IgG (dot-blot) (human IgG; untreated Grp94 2 μg dots) | Molecule | morphology of HUVECs with inhibitor on its own (HUVECs [1]; U0126 10 μM alone) | number of control cells in presence of the inhibitor [2] | HSP90 expression in treated HUVECs in the presence of the inhibitor ([3]; U0126 10 μM added to cells treated with Grp94 10 ng/ml alone or with IgG) | morphogenic transformation of HUVECs (HUVECs [1]; Grp94 10 ng/ml, alone or with IgG 1:1, not changed significantly by U0126, versus cobblestone morphology of control) | increase in PBMC number with respect to the control value ([4]; Grp94 1 ng/ml) [%] | increase in PBMC number with respect to the control value ([4]; Grp94 10 ng/ml) [%] | increase in PBMC number with respect to the control value ([4]; Grp94 100 ng/ml) [%] | IgG production (radioactivity) (PBMC) [cpm] | intensity of HSP90 fluorescence (confocal microscopy) (HUVECs [5]; especially in complexes with IgG) | fluorescence of HSP70 (confocal microscopy) (HUVECs [5]; versus control) | HSP90, HSP70 and IgG in conditioned media (Western blotting) ([3]; HUVEC media after 20-h treatment, Grp94 10 ng/ml, no positivity in control media, mostly in complexes with IgG) | HSP70 in whole cell lysates (Western blotting) ([3]; HUVECs, Grp94 10 ng/ml, 20-h incubation, constitutive form in any lysates) | HSP90 in whole cell lysates (Western blotting) ([3]; HUVECs, Grp94 10 ng/ml, 20-h incubation, not present in control lysates) |
| --- | --- | --- | --- | --- | --- | --- | --- | --- | --- | --- | --- | --- | --- | --- | --- |
|  |  | N#CC(=C(/N)Sc1ccccc1N)/C(C#N)=C(\N)Sc1ccccc1N [U0126, reference compound] | pre-angiogenic transformation | 80.38±4.02×10^3 | blocked |  |  |  |  |  |  |  |  |  |  |
| did not bind IgG any longer | stable binding | Grp94: Glucose-regulated protein 94, native, purified from the microsomal fraction of rat hepatocytes (protein, UniProt Q66HD0 22-804, looked up) Endoplasmin: DDEVDVDGTVEEDLGKSREGSRTDDEVVQREEEAIQLDGLNASQIRELREKSEKFAFQAEVNRMMKLIINSLYKNKEIFLRELISNASDALDKIRLISLTDENALAGNEELTVKIKCDREKNLLHVTDTGVGMTREELVKNLGTIAKSGTSEFLNKMTEAQEDGQSTSELIGQFGVGFYSAFLVADKVIVTSKHNNDTQHIWESDSNEFSVIADPRGNTLGRGTTITLVLKEEASDYLELDTIKNLVRKYSQFINFPIYVWSSKTETVEEPLEEDETAQEEKEEADDEAAVEEEEEEKKPKTKKVEKTVWDWELMNDIKPIWQRPSKEVEEDEYKAFYKSFSKESDDPMAYIHFTAEGEVTFKSILFVPTSAPRGLFDEYGSKKSDYIKLYVRRVFITDDFHDMMPKYLNFVKGVVDSDDLPLNVSRETLQQHKLLKVIRKKLVRKTLDMIKKIADEKYNDTFWKEFGTNIKLGVIEDHSNRTRLAKLLRFQSSHHSTDITSLDQYVERMKEKQDKIYFMAGSSRKEAESSPFVERLLKKGYEVIYLTEPVDEYCIQALPEFDGKRFQNVAKEGVKFDESEKSKESREATEKEFEPLLNWMKDKALKDKIEKAVVSQRLTESPCALVASQYGWSGNMERIMKAQAYQTGKDISTNYYASQKKTFEINPRHPLIRDMLRRVKEDEDDKTVMDLAVVLFETATLRSGYLLPDTKAYGDRIERMLRLSLNIDPEAQVEEEPEEEPEDTTEDTTDDSEQDEEETDAGAEEEEEEQETEKEPTEKDEL |  |  |  | angiogenic modifications | 5 | 63 | 47 | 316 | increased | increased | positive immune reaction | additional bands referred to inducible species of HSP70 | positivity |
